{"source": "paper PMC6839023", "about": "“Structure of the UspA1 protein fragment from Moraxella catarrhalis responsible for C3d binding” (Journal of Structural Biology, 2019)", "proteins": {"B1": {"name": "UspA1^299–452 (ubiquitous surface protein A1 fragment, residues 299–452) (domain or fragment)", "chain": "not shown", "modifications": "fluorescently labelled with the Monolith NT His-Tag Labelling Kit RED-tris-NTA (thermophoresis only)", "notes": "UspA1 of Moraxella catarrhalis strain ATCC 25238 (BC5), GenBank AAD43465, residues 299-452: part of the long neck (299-336) and of the stalk (337-452); Cloned NdeI/HindIII into pET22b(+); No thrombin cleavage is described; Trimer in the crystal; also called UspA1 fragment (amino acids 299–452); UspA^299–452; source: E. coli BL21(DE3), purified (NiNTA, Superdex 200)"}}, "target": "the molecule itself", "assay": "crystal structure; UspA1 299-452 (2.4 mg/ml) mixed 1:3 with C3d (10.7 mg/ml); 1,6-hexanediol, 0.1 M Tris-HCl pH 8.5, 20 mM MgCl2; 2.5 Å; the crystals held only UspA1 299-452", "data": [{"protein": "B1", "values": [{"measurement": "stoichiometry N", "result": 3}]}]}
